Experimental data from IntAct's records for PubMed 22677173.

B1: Spermatogenesis-defective protein 39 homolog (Homo sapiens), Q9H9C1 (parent)
chain: MNRTKGDEEEYWNSSKFKAFTFDDEDDELSQLKESKRAVNSLRDFVDDDDDDDLERVSWSGEPVGSISWSIRETAGNSGSTHEGREQLKSRNSFSSYAQLPKPTSTYSLSSFFRGRTRPGSFQSLSDALSDTPAKSYAPELGRPKGEYRDYSNDWSPSDTVRRLRKGKVCSLERFRSLQDKLQLLEEAVSMHDGNVITAVLIFLKRTLSKEILFRELEVRQVALRHLIHFLKEIGDQKLLLDLFRFLDRTEELALSHYREHLNIQDPDKRKEFLKTCVGLPFSAEDSAHIQDHYTLLERQIIIEANDRHLESAGQTEIFRKHPRKASILNMPLVTTLFYSCFYHYTEAEGTFSSPVNLKKTFKIPDKQYVLTALAARAKLRAWNDVDALFTTKNWLGYTKKRAPIGFHRVVEILHKNNAPVQILQEYVNLVEDVDTKLNLATKFKCHDVVIDTYRDLKDRQQLLAYRSKVDKGSAEEEKIDALLSSSQIRWKN
partner: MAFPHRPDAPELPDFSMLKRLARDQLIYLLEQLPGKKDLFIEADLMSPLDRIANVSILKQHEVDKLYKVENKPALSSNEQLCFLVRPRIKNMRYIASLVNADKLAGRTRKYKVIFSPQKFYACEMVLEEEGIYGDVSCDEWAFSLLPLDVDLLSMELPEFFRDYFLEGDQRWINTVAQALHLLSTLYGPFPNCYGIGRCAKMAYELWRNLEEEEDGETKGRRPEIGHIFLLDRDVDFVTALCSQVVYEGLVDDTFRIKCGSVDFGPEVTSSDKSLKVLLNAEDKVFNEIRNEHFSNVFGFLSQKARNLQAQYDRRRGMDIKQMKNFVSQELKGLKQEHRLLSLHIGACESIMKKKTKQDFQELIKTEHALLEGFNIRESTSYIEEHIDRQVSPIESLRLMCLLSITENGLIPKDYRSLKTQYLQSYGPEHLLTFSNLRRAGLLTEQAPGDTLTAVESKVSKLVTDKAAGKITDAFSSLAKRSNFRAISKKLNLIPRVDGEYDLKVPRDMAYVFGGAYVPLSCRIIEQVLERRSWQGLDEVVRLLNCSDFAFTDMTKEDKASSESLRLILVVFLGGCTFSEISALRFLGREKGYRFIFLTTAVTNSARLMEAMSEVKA

Variants of: B1
Conditions: with vp33b_human VPS33B

| effect of a mutation on the interaction | Variant |
| --- | --- |
| increasing interaction | Y11F |
